Laboratory results: CN111087470A

Target: 人CD47 (human) (UniProt Q08722)
Assay: flow cytometry on red blood cells, commercial B6H12.2 as comparison

- 结合率: 99.2%
B1: 商品化抗CD47抗体B6H12.2 (antibody, from another filing)
scFv: EVQLVESGGDLVKPGGSLKLSCAASGFTFSGYGMSWVRQTPDKRLEWVATITSGGTYTYYPDSVKGRFTISRDNAKNTLYLQIDSLKSEDTAIYFCARSLAGNAMDYWGQGTSVTVSSGGGGSGGGGSGGGGSDIVMTQSPATLSVTPGDRVSLSCRASQTISDYLHWYQQKSHESPRLLIKFASQSISGIPSRFSGSGSGSDFTLSINSVEPEDVGVYYCQNGHGFPRTFGGGTKLEIKEQKLISEEDL
